Patent US20150203577A1 (Chugai, published 2015)

How the values were obtained:
mouse FcγRII = target: T1, mouse FcγRII (mouse, UniProt P08101 30-210); assay: SPR Biacore T200, KD ratio
T1 construct: also called mFcγRII; mFcgRII
T1 sequence: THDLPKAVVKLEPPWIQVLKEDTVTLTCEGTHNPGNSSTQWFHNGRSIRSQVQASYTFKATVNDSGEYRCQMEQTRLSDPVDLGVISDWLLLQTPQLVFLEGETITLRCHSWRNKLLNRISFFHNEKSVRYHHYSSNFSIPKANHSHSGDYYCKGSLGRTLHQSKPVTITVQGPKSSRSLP
Text: (§1) The antibody H chain variable region used was the variable region H237 (SEQ ID NO: 1) of the H chain VH3-IgG1 of the anti-IL-6 receptor antibody Fv4-IgG1 described in WO2009/125825. The antibody L chain commonly used was the L chain MRAL-k0 (SEQ ID NO: 2) of the anti-IL-6 receptor antibody tocilizumab. […] The resulting variant group was designated as MB110 variants. These variants were expressed and purified by the method of Reference Example 1 and evaluated for their binding to mFcγRII and mFcγRIII by the method of Reference Example 2 using Biacore T200.
(§2) Each altered antibody was analyzed for its interaction with each Fcγ receptor prepared above using Biacore T100 (GE Healthcare Japan Corp.), Biacore T200 (GE Healthcare Japan Corp.), Biacore A100, or Biacore 4000. The running buffer used was HBS-EP+ (GE Healthcare Japan Corp.). The assay temperature was set to 25° C. The sensor chips used were chips prepared by immobilizing Protein L (ACTIGEN or BioVision) onto Series S Sensor Chip CM5 (GE Healthcare Japan Corp.) or Series S Sensor Chip CM4 (GE Healthcare Japan Corp.) by the amine coupling method.
(§3) In order to calculate the KD value of each altered antibody for FcγR, kinetic analysis was conducted according to the following method: first, the antibody of interest was captured onto any of these chips and allowed to interact with mFcγR diluted with a running buffer. For the obtained sensorgram, the assay results were globally fit into the 1:1 Langmuir binding model using Biacore Evaluation Software to calculate an association rate constant ka (L/mol/s) and a dissociation rate constant kd (1/s). From these values, the dissociation constant KD (mol/L) was calculated.

mouse FcγRIII = target: T2, mouse FcγRIII (mouse, UniProt P08508 31-215); assay: SPR Biacore T200, KD ratio
T2 construct: also called mFcγRIII; mFcgRIII
T2 chain: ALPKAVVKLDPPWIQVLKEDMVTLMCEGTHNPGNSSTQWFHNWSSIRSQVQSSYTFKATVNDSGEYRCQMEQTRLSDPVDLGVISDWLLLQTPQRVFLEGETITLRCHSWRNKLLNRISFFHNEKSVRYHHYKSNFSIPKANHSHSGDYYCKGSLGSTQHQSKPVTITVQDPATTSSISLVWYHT
Text: as §1, §2, §3

| Binder | Relative mFcγRII-binding activity (MB110 = 1) (mouse FcγRII) | relative mFcγRII-binding activity (mIgG1 = 1) (mouse FcγRII) | Relative mFcγRIII-binding activity (MB110 = 1) (mouse FcγRIII) | relative mFcγRIII-binding activity (mIgG1 = 1) (mouse FcγRIII) |
| --- | --- | --- | --- | --- |
| MB304 (antibody, mouse IgG1, kappa, copies: 2 + 2) heavy: QVQLQESGPGLVKPSETLSLTCAVSGHSISHDHAWSWVRQPPGEGLEWIGFISYSGITNYNPSLQGRVTISRDNSKNTLYLQMNSLRAEDTAVYYCARSLARTTAMDYWGEGTLVTVSSAKTTPPSVYPLAPGSAAQTNSMVTLGCLVKGYFPEPVTVTWNSGSLSSGVHTFPAVLQSDLYTLSSSVTVPSSTWPSETVTCNVAHPASSTKVDKKIVPRDCGCKPCICEVPEVSDHFIFPPKPKDVLTITLTPKVTCVVVDISKDDPEVQFSWFVDDVEVHTAQTQPREEQFNSTFRSVSELPIMHQDWLNGKEFKCRVNSAAFPAPIEKTISKTKGRPKAPQVYTIPPPKEQMAKDKVSLTCMITDFFPEDITVEWQWNGQPAENYKNTQPIMDTDGSYFVYSKLNVQKSNWEAGNTFTCSVLHEGLHNHHTEKSLSHSPGK light: not shown | 1.11 fold | 13.7 fold | 0.5 fold | 2 fold |
| MB311 (antibody, mouse IgG1, kappa, copies: 2 + 2) heavy: QVQLQESGPGLVKPSETLSLTCAVSGHSISHDHAWSWVRQPPGEGLEWIGFISYSGITNYNPSLQGRVTISRDNSKNTLYLQMNSLRAEDTAVYYCARSLARTTAMDYWGEGTLVTVSSAKTTPPSVYPLAPGSAAQTNSMVTLGCLVKGYFPEPVTVTWNSGSLSSGVHTFPAVLQSDLYTLSSSVTVPSSTWPSETVTCNVAHPASSTKVDKKIVPRDCGCKPCICTDPEVSDEFIFPPKPKDVLTITLTPKVTCVVVDISKDDPEVQFSWFVDDVEVHTAQTQPREEQFNSTFRSVSELPIMHQDWLNGKEFKCRVNSAAFPAPIEKTISKTKGRPKAPQVYTIPPPKEQMAKDKVSLTCMITDFFPEDITVEWQWNGQPAENYKNTQPIMDTDGSYFVYSKLNVQKSNWEAGNTFTCSVLHEGLHNHHTEKSLSHSPGK light: not shown | 1.43 fold | 17.6 fold | 0.52 fold | 2.1 fold |
| MB308 (antibody, mouse IgG1, kappa, copies: 2 + 2) heavy: QVQLQESGPGLVKPSETLSLTCAVSGHSISHDHAWSWVRQPPGEGLEWIGFISYSGITNYNPSLQGRVTISRDNSKNTLYLQMNSLRAEDTAVYYCARSLARTTAMDYWGEGTLVTVSSAKTTPPSVYPLAPGSAAQTNSMVTLGCLVKGYFPEPVTVTWNSGSLSSGVHTFPAVLQSDLYTLSSSVTVPSSTWPSETVTCNVAHPASSTKVDKKIVPRDCGCKPCICTAPEVSDHFIFPPKPKDVLTITLTPKVTCVVVDISKDDPEVQFSWFVDDVEVHTAQTQPREEQFNSTFRSVSELPIMHQDWLNGKEFKCRVNSAAFPAPIEKTISKTKGRPKAPQVYTIPPPKEQMAKDKVSLTCMITDFFPEDITVEWQWNGQPAENYKNTQPIMDTDGSYFVYSKLNVQKSNWEAGNTFTCSVLHEGLHNHHTEKSLSHSPGK light: not shown | 2.14 fold | 26.3 fold | 0.67 fold | 2.7 fold |
| MB307 (antibody, copies: 2 + 2) heavy: QVQLQESGPGLVKPSETLSLTCAVSGHSISHDHAWSWVRQPPGEGLEWIGFISYSGITNYNPSLQGRVTISRDNSKNTLYLQMNSLRAEDTAVYYCARSLARTTAMDYWGEGTLVTVSSAKTTPPSVYPLAPGSAAQTNSMVTLGCLVKGYFPEPVTVTWNSGSLSSGVHTFPAVLQSDLYTLSSSVTVPSSTWPSETVTCNVAHPASSTKVDKKIVPRDCGCKPCICTAPEVSDEFIFPPKPKDVLTITLTPKVTCVVVDISKDDPEVQFSWFVDDVEVHTAQTQPREEQFNSTFRSVSELPIMHQDWLNGKEFKCRVNSAAFPAPIEKTISKTKGRPKAPQVYTIPPPKEQMAKDKVSLTCMITDFFPEDITVEWQWNGQPAENYKNTQPIMDTDGSYFVYSKLNVQKSNWEAGNTFTCSVLHEGLHNHHTEKSLSHSPGK light: not shown | 0.92 fold | 11.3 fold | 0.55 fold | 2.2 fold |
| MB306 (antibody, mouse IgG1, kappa, copies: 2 + 2) heavy: QVQLQESGPGLVKPSETLSLTCAVSGHSISHDHAWSWVRQPPGEGLEWIGFISYSGITNYNPSLQGRVTISRDNSKNTLYLQMNSLRAEDTAVYYCARSLARTTAMDYWGEGTLVTVSSAKTTPPSVYPLAPGSAAQTNSMVTLGCLVKGYFPEPVTVTWNSGSLSSGVHTFPAVLQSDLYTLSSSVTVPSSTWPSETVTCNVAHPASSTKVDKKIVPRDCGCKPCICTAPEVEDVFIFPPKPKDVLTITLTPKVTCVVVDISKDDPEVQFSWFVDDVEVHTAQTQPREEQFNSTFRSVSELPIMHQDWLNGKEFKCRVNSAAFPAPIEKTISKTKGRPKAPQVYTIPPPKEQMAKDKVSLTCMITDFFPEDITVEWQWNGQPAENYKNTQPIMDTDGSYFVYSKLNVQKSNWEAGNTFTCSVLHEGLHNHHTEKSLSHSPGK light: not shown | 5.36 fold | 65.8 fold | 1.05 fold | 4.2 fold |
| MB310 (antibody, mouse IgG1, kappa, copies: 2 + 2) heavy: QVQLQESGPGLVKPSETLSLTCAVSGHSISHDHAWSWVRQPPGEGLEWIGFISYSGITNYNPSLQGRVTISRDNSKNTLYLQMNSLRAEDTAVYYCARSLARTTAMDYWGEGTLVTVSSAKTTPPSVYPLAPGSAAQTNSMVTLGCLVKGYFPEPVTVTWNSGSLSSGVHTFPAVLQSDLYTLSSSVTVPSSTWPSETVTCNVAHPASSTKVDKKIVPRDCGCKPCICTDPEVEDVFIFPPKPKDVLTITLTPKVTCVVVDISKDDPEVQFSWFVDDVEVHTAQTQPREEQFNSTFRSVSELPIMHQDWLNGKEFKCRVNSAAFPAPIEKTISKTKGRPKAPQVYTIPPPKEQMAKDKVSLTCMITDFFPEDITVEWQWNGQPAENYKNTQPIMDTDGSYFVYSKLNVQKSNWEAGNTFTCSVLHEGLHNHHTEKSLSHSPGK light: not shown | 3.16 fold | 38.8 fold | 0.96 fold | 3.8 fold |
| MB312 (antibody, mouse IgG1, kappa, copies: 2 + 2) heavy: QVQLQESGPGLVKPSETLSLTCAVSGHSISHDHAWSWVRQPPGEGLEWIGFISYSGITNYNPSLQGRVTISRDNSKNTLYLQMNSLRAEDTAVYYCARSLARTTAMDYWGEGTLVTVSSAKTTPPSVYPLAPGSAAQTNSMVTLGCLVKGYFPEPVTVTWNSGSLSSGVHTFPAVLQSDLYTLSSSVTVPSSTWPSETVTCNVAHPASSTKVDKKIVPRDCGCKPCICTDPEVSDHFIFPPKPKDVLTITLTPKVTCVVVDISKDDPEVQFSWFVDDVEVHTAQTQPREEQFNSTFRSVSELPIMHQDWLNGKEFKCRVNSAAFPAPIEKTISKTKGRPKAPQVYTIPPPKEQMAKDKVSLTCMITDFFPEDITVEWQWNGQPAENYKNTQPIMDTDGSYFVYSKLNVQKSNWEAGNTFTCSVLHEGLHNHHTEKSLSHSPGK light: not shown | 4.51 fold | 55.4 fold | 0.87 fold | 3.5 fold |
| MB309 (antibody, mouse IgG1, kappa, copies: 2 + 2) heavy: QVQLQESGPGLVKPSETLSLTCAVSGHSISHDHAWSWVRQPPGEGLEWIGFISYSGITNYNPSLQGRVTISRDNSKNTLYLQMNSLRAEDTAVYYCARSLARTTAMDYWGEGTLVTVSSAKTTPPSVYPLAPGSAAQTNSMVTLGCLVKGYFPEPVTVTWNSGSLSSGVHTFPAVLQSDLYTLSSSVTVPSSTWPSETVTCNVAHPASSTKVDKKIVPRDCGCKPCICTDEEVSDVFIFPPKPKDVLTITLTPKVTCVVVDISKDDPEVQFSWFVDDVEVHTAQTQPREEQFNSTFRSVSELPIMHQDWLNGKEFKCRVNSAAFPAPIEKTISKTKGRPKAPQVYTIPPPKEQMAKDKVSLTCMITDFFPEDITVEWQWNGQPAENYKNTQPIMDTDGSYFVYSKLNVQKSNWEAGNTFTCSVLHEGLHNHHTEKSLSHSPGK light: not shown | 2.27 fold | 27.9 fold | 0.96 fold | 3.9 fold |
